According to article PMC2764441:
Where “and” joins values, the source holds several entries; their conditions need not be identical. Equal entries are not always repeated. Each block holds one binder with its values, some of them ahead of it.

Key:
[1] = target: T1, NF-κB p65 (recombinant p65) (not stated (human or murine protein purified)), Q04207; assay: cross-linking; settings: remark: other sources report otherwise
T1 chain: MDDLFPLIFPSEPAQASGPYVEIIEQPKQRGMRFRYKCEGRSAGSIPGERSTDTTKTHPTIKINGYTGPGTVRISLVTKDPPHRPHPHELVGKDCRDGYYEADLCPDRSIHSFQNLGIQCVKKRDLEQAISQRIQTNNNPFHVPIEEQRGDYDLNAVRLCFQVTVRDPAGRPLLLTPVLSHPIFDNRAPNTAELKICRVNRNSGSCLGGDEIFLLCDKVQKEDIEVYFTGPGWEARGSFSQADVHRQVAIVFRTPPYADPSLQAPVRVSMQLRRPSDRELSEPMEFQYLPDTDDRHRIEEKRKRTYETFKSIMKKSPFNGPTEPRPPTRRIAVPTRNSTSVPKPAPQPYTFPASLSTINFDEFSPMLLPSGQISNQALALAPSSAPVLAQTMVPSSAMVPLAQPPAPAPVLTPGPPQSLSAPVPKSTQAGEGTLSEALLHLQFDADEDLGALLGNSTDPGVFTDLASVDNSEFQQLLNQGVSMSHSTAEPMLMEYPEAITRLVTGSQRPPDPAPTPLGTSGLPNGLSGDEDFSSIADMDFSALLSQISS

[2] = target: NF-kB p65 homodimer, murine (mouse, UniProt Q04207 19-306); assay: EMSA
[3] = target: NF-kB p65 homodimer, human (human, UniProt Q04206 19-306); assay: EMSA
[4] = target: T2, NF-κB p50 (recombinant human p50) (human), P19838; assay: cross-linking; settings: remark: other sources report otherwise
T2 chain: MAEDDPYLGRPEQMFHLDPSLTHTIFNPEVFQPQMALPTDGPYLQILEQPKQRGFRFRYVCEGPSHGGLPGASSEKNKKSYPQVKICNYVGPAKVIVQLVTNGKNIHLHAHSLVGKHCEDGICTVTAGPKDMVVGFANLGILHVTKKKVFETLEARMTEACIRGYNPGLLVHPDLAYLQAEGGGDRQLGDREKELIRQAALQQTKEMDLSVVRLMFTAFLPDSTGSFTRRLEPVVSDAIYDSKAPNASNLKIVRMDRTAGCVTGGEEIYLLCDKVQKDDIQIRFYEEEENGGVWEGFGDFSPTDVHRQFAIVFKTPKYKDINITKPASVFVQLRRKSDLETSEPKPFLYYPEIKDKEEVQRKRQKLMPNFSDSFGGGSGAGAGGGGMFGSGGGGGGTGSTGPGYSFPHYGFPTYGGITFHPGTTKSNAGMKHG

Sequence of NF-kB p65 homodimer, human (Q04206 19-306): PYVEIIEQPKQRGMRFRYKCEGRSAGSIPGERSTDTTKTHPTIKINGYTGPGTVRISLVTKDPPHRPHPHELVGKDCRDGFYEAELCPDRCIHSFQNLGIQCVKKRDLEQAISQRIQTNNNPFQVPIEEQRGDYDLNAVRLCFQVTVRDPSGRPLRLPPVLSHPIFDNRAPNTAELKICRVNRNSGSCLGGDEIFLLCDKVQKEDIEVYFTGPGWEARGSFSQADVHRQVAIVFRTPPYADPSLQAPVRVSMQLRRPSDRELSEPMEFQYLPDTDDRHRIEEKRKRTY

stoichiometry N [1]: 2
B1: NF-κB p65 (recombinant p65), Q04207 1-549 (natural protein)
chain: MDDLFPLIFPSEPAQASGPYVEIIEQPKQRGMRFRYKCEGRSAGSIPGERSTDTTKTHPTIKINGYTGPGTVRISLVTKDPPHRPHPHELVGKDCRDGYYEADLCPDRSIHSFQNLGIQCVKKRDLEQAISQRIQTNNNPFHVPIEEQRGDYDLNAVRLCFQVTVRDPAGRPLLLTPVLSHPIFDNRAPNTAELKICRVNRNSGSCLGGDEIFLLCDKVQKEDIEVYFTGPGWEARGSFSQADVHRQVAIVFRTPPYADPSLQAPVRVSMQLRRPSDRELSEPMEFQYLPDTDDRHRIEEKRKRTYETFKSIMKKSPFNGPTEPRPPTRRIAVPTRNSTSVPKPAPQPYTFPASLSTINFDEFSPMLLPSGQISNQALALAPSSAPVLAQTMVPSSAMVPLAQPPAPAPVLTPGPPQSLSAPVPKSTQAGEGTLSEALLHLQFDADEDLGALLGNSTDPGVFTDLASVDNSEFQQLLNQGVSMSHSTAEPMLMEYPEAITRLVTGSQRPPDPAPTPLGTSGLPNGLSGDEDFSSIADMDFSALLSQISS

B2: R1 anti-p65 RNA aptamer (structured_RNA)
RNA: GAAGCUUACAAGAAGGACAGCACGAAUAAAACCUGCGUAAAUCCGCCCCAUUUGUGUAAGGGUAGUGGGUCGAAUUCCGCUCA
Kd [2]: 0.038 ± 0.02 µM | binding result [3]: binds

stoichiometry N [4]: 2 and 4
B3: NF-κB p50 (recombinant human p50), P19838 1-433 (natural protein)
chain: MAEDDPYLGRPEQMFHLDPSLTHTIFNPEVFQPQMALPTDGPYLQILEQPKQRGFRFRYVCEGPSHGGLPGASSEKNKKSYPQVKICNYVGPAKVIVQLVTNGKNIHLHAHSLVGKHCEDGICTVTAGPKDMVVGFANLGILHVTKKKVFETLEARMTEACIRGYNPGLLVHPDLAYLQAEGGGDRQLGDREKELIRQAALQQTKEMDLSVVRLMFTAFLPDSTGSFTRRLEPVVSDAIYDSKAPNASNLKIVRMDRTAGCVTGGEEIYLLCDKVQKDDIQIRFYEEEENGGVWEGFGDFSPTDVHRQFAIVFKTPKYKDINITKPASVFVQLRRKSDLETSEPKPFLYYPEIKDKEEVQRKRQKLMPNFSDSFGGGSGAGAGGGGMFGSGGGGGGTGSTGPGYSFPHYGFPTYGGITFHPGTTKSNAGMKHG
